According to patent US20210261648A1 (published 2021):
Substitutions are numbered along the chain they refer to.

B1: IL6R-BP540/IL6R-L (antibody, human IgG1, kappa)
heavy: QVQLQESGPGLVKPSETLSLTCAVSGHSISHDHAWSWVRQPPGEGLEWIGFISYSGITNYNPSLQGRVTISRDNSKNTLYLQMNSLRAEDTAVYYCARSLARTTAMDYWGEGTLVTVSSASTKGPSVFPLAPSSKSTSGGTAALGCLVKDYFPEPVTVSWNSGALTSGVHTFPAVLQSSGLYSLSSVVTVPSSSLGTQTYICNVNHKPSNTKVDKKVEPKSCDKTHTCPPCPAPELLGDDSVFLFPPKPKDTLMISRTPEVTCVVIDVSEEDGPVKFNWYVDGVEVHNAKTKPREEQDNSTYRVVSVLTVLHQDWLNGKEYKCKVSNKALPRPIEKTISKAKGQPREPQVYTLPPSRDELTKNQVSLTCLVKGFYPSDIAVEWESNGQPENNYKTTPPVLDSDGSFFLYSKLTVDKSRWQQGNVFSCSVMHEALHNHYTQESLSLSP
light: not shown
notes: Alterations in EU numbering, introduced into IL6R-B3
B2: IL6R-2B002/IL6R-L (antibody, human IgG1, kappa)
heavy: B1 heavy with E235D, D239G, I266V, E270H, G273P, P274E, D298Y, R332A
light: not shown
notes: Alterations introduced into IL6R-B3
B3: IL6R-BP118/IL6R-L (antibody, human IgG1, kappa)
heavy: B1 heavy with D239G, I266V, E270H, G273P, P274E, D298Y, K328S, R332A
light: not shown
notes: as for B2
B4: IL6R-BP121/IL6R-L (antibody, human IgG1, kappa)
heavy: B1 heavy with D239G, I266V, E270H, G273P, P274E, D298Y, K328Q, R332A
light: not shown
notes: as for B2
B5: IL6R-BP556/IL6R-L (antibody, human IgG1, kappa)
heavy: B1 heavy with S269G, P274E
light: not shown
notes: as for B1
B6: IL6R-BP078/IL6R-L (antibody, human IgG1, kappa)
heavy: B1 heavy with D239G, I266V, E270H, G273P, P274E, D298Y, R332M
light: not shown
notes: as for B2
B7: IL6R-BP116/IL6R-L (antibody, human IgG1, kappa)
heavy: B1 heavy with D239G, I266V, E270H, G273P, P274E, D298Y, K328T, R332A
light: not shown
notes: as for B2
B8: IL6R-BP126/IL6R-L (antibody, human IgG1, kappa)
heavy: B1 heavy with D239G, I266V, E270H, G273P, P274E, D298Y, K328L, R332A
light: not shown
notes: as for B2
B9: IL6R-BP136/IL6R-L (antibody, human IgG1, kappa)
heavy: B1 heavy with D239G, I266V, E270H, G273P, P274E, D298Y, K328A, R332A
light: not shown
notes: as for B2
B10: IL6R-BP103/IL6R-L (antibody, human IgG1, kappa)
heavy: B1 heavy with D239G, I266V, S269V, E270H, G273P, P274E, D298Y, R332A
light: not shown
notes: as for B2
B11: IL6R-BP102/IL6R-L (antibody, human IgG1, kappa)
heavy: B1 heavy with D239G, I266V, S269Q, E270H, G273P, P274E, D298Y, R332A
light: not shown
notes: as for B2
B12: IL6R-BP107/IL6R-L (antibody, human IgG1, kappa)
heavy: B1 heavy with D239G, I266V, G273P, P274E, D298Y, R332A
light: not shown
notes: as for B2
B13: IL6R-2B171/IL6R-L (antibody, human IgG1, kappa)
heavy: B1 heavy with D239G, I266V, E270H, G273P, P274E, D298Y, V325L, R332A
light: not shown
notes: as for B2
B14: IL6R-BP112/IL6R-L (antibody, human IgG1, kappa)
heavy: B1 heavy with D239G, I266V, E270H, P274E, D298Y, R332A
light: not shown
notes: as for B2
B15: IL6R-BP550/IL6R-L (antibody, human IgG1, kappa)
heavy: B1 heavy with S269G, P274D
light: not shown
notes: as for B1
B16: IL6R-2B128/IL6R-L (antibody, human IgG1, kappa)
heavy: B1 heavy with D239G, I266V, E270H, G273P, P274E, R332A
light: not shown
notes: as for B2
B17: IL6R-BP110/IL6R-L (antibody, human IgG1, kappa)
heavy: B1 heavy with D239G, I266V, E270N, G273P, P274E, D298Y, R332A
light: not shown
notes: as for B2
B18: IL6R-BP119/IL6R-L (antibody, human IgG1, kappa)
heavy: B1 heavy with D239G, I266V, E270H, G273P, P274E, D298Y, K328M, R332A
light: not shown
notes: as for B2
B19: IL6R-BP551/IL6R-L (antibody, human IgG1, kappa)
heavy: B1 heavy with P274D
light: not shown
notes: as for B1
B20: IL6R-BP100/IL6R-L (antibody, human IgG1, kappa)
heavy: B1 heavy with D239G, I266V, S269A, E270H, G273P, P274E, D298Y, R332A
light: not shown
notes: as for B2
B21: IL6R-BP911/IL6R-L (antibody, human IgG1, kappa)
heavy: B1 heavy with D239G, I266V, E270H, G273P, P274E, D298Y, R332K
light: not shown
notes: as for B2
B22: IL6R-BP142/IL6R-L (antibody, human IgG1, kappa)
heavy: B1 heavy with D239G, I266V, E270H, G273P, P274E, D298Y, K328N, R332A
light: not shown
notes: as for B2
B23: IL6R-2B172/IL6R-L (antibody, human IgG1, kappa)
heavy: B1 heavy with D239G, I266V, E270H, G273P, P274E, D298Y, V325M, R332A
light: not shown
notes: as for B2
B24: IL6R-2B169/IL6R-L (antibody, human IgG1, kappa)
heavy: B1 heavy with D239G, I266V, E270H, G273P, P274E, D298Y, V325I, R332A
light: not shown
notes: as for B2
B25: IL6R-BP106/IL6R-L (antibody, human IgG1, kappa)
heavy: B1 heavy with D239G, I266V, E270D, G273P, P274E, D298Y, R332A
light: not shown
notes: as for B2
B26: IL6R-BP117/IL6R-L (antibody, human IgG1, kappa)
heavy: B1 heavy with D239G, I266V, E270H, G273P, P274E, D298Y, K328D, R332A
light: not shown
notes: as for B2

Legend:
FcγRIIb [1] = biological target: T1, FcγRIIb (human, UniProt P31994 43-217); experiment: SPR (Biacore); parent = IL6R-B3/IL6R-L
T1 construct: extracellular domain; also called FcgRIIb; CD32B
T1 sequence (looked up): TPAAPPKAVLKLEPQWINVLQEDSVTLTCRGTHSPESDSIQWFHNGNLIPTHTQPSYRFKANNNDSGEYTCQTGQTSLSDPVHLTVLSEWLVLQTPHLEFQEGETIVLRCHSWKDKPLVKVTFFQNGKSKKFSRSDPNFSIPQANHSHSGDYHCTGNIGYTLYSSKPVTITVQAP

FcγRIIa type R [2] = biological target: T2, FcγRIIa type R (human, UniProt P12318 34-217); experiment: SPR (Biacore); parent = IL6R-B3/IL6R-L
T2 chain: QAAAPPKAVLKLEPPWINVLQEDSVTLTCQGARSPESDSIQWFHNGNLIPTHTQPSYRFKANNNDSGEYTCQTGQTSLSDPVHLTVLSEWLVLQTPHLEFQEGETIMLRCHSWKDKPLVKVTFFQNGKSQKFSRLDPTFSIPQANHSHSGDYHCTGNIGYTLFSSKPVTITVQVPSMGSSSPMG

FcγRIIa type H = biological target: T3, FcγRIIa type H (human, UniProt P12318 34-217); experiment: SPR (Biacore), captured antibody, soluble FcγR
T3 construct: extracellular domain; also called FcγRIIaH; FcgRIIaH
T3 sequence (looked up): T2 chain with R134H

FcγRIIb [3] = biological target: T1, FcγRIIb; experiment: SPR (Biacore), captured antibody, soluble FcγR
FcγRIIa type R [4] = biological target: T2, FcγRIIa type R; experiment: SPR (Biacore), captured antibody, soluble FcγR
FcγRIa = biological target: T4, FcγRIa (human, UniProt P12314 16-292); experiment: SPR (Biacore), captured antibody, soluble FcγR
T4 construct: Whole entry named; also called FcgRIa; CD64A
T4 sequence (P12314 16-292): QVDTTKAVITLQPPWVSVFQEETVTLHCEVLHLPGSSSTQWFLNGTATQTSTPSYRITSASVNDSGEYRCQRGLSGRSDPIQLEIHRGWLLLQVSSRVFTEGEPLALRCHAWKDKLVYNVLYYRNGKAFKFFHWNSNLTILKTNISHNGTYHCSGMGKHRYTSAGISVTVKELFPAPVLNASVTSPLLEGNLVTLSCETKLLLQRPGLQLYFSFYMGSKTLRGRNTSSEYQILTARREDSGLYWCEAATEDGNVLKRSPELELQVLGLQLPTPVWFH

[5] = biological target: T5, FcγRIIb extracellular domain with C-terminal His tag (human, UniProt P31994 43-217); experiment: SPR binding amount, relative to IL6R-BF648/IL6R-L
T5 construct: extracellular domain; For crystallography it was expressed with kifunensine and trimmed with Endo F1; also called FcgRIIb; FcγRIIb extracellular region; not shown: His tag attached to the C terminus
T5 sequence (looked up): T1 sequence (looked up)

[6] = biological target: T6, FcγRIIa type H extracellular domain with C-terminal His tag (human, UniProt P12318 34-217); experiment: SPR binding amount, relative to IL6R-BF648/IL6R-L
T6 construct: extracellular domain; also called FcγRIIaH; FcgRIIaH; not shown: His tag attached to the C terminus
T6 sequence (looked up): T2 chain with R134H

[7] = biological target: T7, FcγRIa extracellular domain with C-terminal His tag (human, UniProt P12314 16-292); experiment: SPR binding amount, relative to IL6R-BF648/IL6R-L
T7 construct: also called FcgRIa; not shown: His tag attached to the C terminus
T7 sequence (P12314 16-292): as above

Row | Binder | KD(IIb) of the parent polypeptide/KD(IIb) of the altered polypeptide (FcγRIIb [1]) [fold] | KD(IIaR) of the parent polypeptide/KD(IIaR) of the altered polypeptide (FcγRIIa type R [2]) [fold] | Kd (FcγRIIa type H) [nM] | Kd (FcγRIIb [3]) [nM] | Kd (FcγRIIa type R [4]) [nM] | Kd (FcγRIa) [nM] | relative binding activity (IL6R-BF648/IL6R-L = 100) [5] | relative binding activity (IL6R-BF648/IL6R-L = 100) [6] | relative binding activity (IL6R-BF648/IL6R-L = 100) [7]
1 | B1 | 541 | 5.2 | 4600 | 5.7 | 210 | 96 | – | – | –
2 | B2 | – | – | – | – | – | – | 116 | 147 | 118
3 | B3 | – | – | – | – | – | – | 104 | 128 | 101
4 | B4 | – | – | – | – | – | – | 113 | 135 | 118
5 | B5 | 370 | 3.7 | 5800 | 8.4 | 300 | 43 | – | – | –
6 | B6 | – | – | – | – | – | – | 105 | 89 | 106
7 | B7 | – | – | – | – | – | – | 108 | 110 | 110
8 | B8 | – | – | – | – | – | – | 103 | 132 | 113
9 | B9 | – | – | – | – | – | – | 119 | 103 | 117
10 | B10 | – | – | – | – | – | – | 107 | 69 | 56
11 | B11 | – | – | – | – | – | – | 106 | 66 | 104
12 | B12 | – | – | – | – | – | – | 118 | 114 | 123
13 | B13 | – | – | – | – | – | – | 113 | 115 | 116
14 | B14 | – | – | – | – | – | – | 157 | 113 | 119
15 | B15 | 406 | 3.3 | 5000 | 7.6 | 340 | 25 | – | – | –
16 | B16 | – | – | – | – | – | – | 103 | 37 | 95
17 | B17 | – | – | – | – | – | – | 101 | 127 | 105
18 | B18 | – | – | – | – | – | – | 110 | 133 | 117
19 | B19 | 482 | 4.5 | 2800 | 6.4 | 250 | 32 | – | – | –
20 | B20 | – | – | – | – | – | – | 110 | 128 | 121
21 | B21 | – | – | – | – | – | – | 119 | 108 | 52
22 | B22 | – | – | – | – | – | – | 106 | 97 | 98
23 | B23 | – | – | – | – | – | – | 132 | 179 | 140
24 | B24 | – | – | – | – | – | – | 104 | 83 | 73
25 | B25 | – | – | – | – | – | – | 116 | 110 | 127
26 | B26 | – | – | – | – | – | – | 118 | 96 | 124
